Source: paper PMC2864353 (Blood coagulation & fibrinolysis : an international journal …, 2010)
Where two headings read alike, the source gives them in different places.

Tests used:
Test in all cases: SPR
[1] = molecular target: T1, recombinant tissue factor containing transmembrane spanning domain (TF 1-248), relipidated
T1 chain: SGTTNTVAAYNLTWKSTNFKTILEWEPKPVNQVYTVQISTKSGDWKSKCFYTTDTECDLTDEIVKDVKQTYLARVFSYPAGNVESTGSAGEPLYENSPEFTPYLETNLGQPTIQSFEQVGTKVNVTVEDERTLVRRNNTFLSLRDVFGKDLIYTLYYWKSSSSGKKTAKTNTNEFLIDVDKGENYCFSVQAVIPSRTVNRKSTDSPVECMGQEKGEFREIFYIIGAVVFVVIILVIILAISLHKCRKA

[2] = molecular target: T1, recombinant tissue factor containing …
[3] = molecular target: soluble tissue factor (TF 1-219) (UniProt P13726 33-251)

B1: Factor VIIa (enzyme)
chain 1: ANAFLEELRPGSLERECKEEQCSFEEAREIFKDAERTKLFWISYSDGDQCASSPCQNGGSCKDQLQSYICFCLPAFEGRNCETHKDDQLICVNENGGCEQYCSDHTGTKRSCRCHEGYSLLADGVSCTPTVEYPCGKIPILEKRNASKPQGR
chain 2: IVGGKVCPKGECPWQVLLLVNGAQLCGGTLINTIWVVSAAHCFDKIKNWRNLIAVLGEHDLSEHDGDEQSRRVAQVIIPSTYVPGTTNHDIALLRLHQPVVLTDHVVPLCLPERTFSERTLAFVRFSLVSGWGQLLDRGATALELMVLNVPRLMTQDCLQQSRKVGDSPNITEYMFCAGYSDGSKDSCKGDSGGPHATHYRGTWYLTGIVSWGQGCATVGHFGVYTRVSQYIEWLQKLMRSEPRPGVLLRAPFP
B1 gave a Kd [1] of 45.7 pM, a koff [1] of 0.000234 s⁻¹ and a kon [1] of 2.73e+06 M⁻¹ s⁻¹. It also gave a Kd [2] of 47.4 pM, a koff [2] of 0.000233 s⁻¹ and a kon [2] of 2.58e+06 M⁻¹ s⁻¹. The Kd [3] was 11600 pM, the koff [3] was 0.00592 s⁻¹ and the kon [3] was 475000 M⁻¹ s⁻¹.
